Data reported in paper PMC2926597.

Target: T1, KSRP KH23 (KH2-KH3 di-domain) (Homo sapiens, UniProt Q92945 233-418)
T1 sequence: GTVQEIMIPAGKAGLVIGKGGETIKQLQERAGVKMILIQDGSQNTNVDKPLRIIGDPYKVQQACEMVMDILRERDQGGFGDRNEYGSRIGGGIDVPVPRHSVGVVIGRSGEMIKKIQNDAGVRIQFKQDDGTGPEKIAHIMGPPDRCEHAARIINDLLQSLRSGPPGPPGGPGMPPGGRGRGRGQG
Assay: CD titration

**Q.** For UAUUUAUUAUUU (ssRNA) [TNFa ARE AU-12mer], which Kd is on record?
**A.** The Kd was 1000 ± 100 nM.
